Results reported in patent US20210238260A1 (published 2021).

T1: Factor VIIIa (FVIIIa), from recombinant FVIII (Kogenate FS; Bayer healthcare) activated with alpha-thrombin (UniProt P00451 20-2351)
T1 sequence (looked up): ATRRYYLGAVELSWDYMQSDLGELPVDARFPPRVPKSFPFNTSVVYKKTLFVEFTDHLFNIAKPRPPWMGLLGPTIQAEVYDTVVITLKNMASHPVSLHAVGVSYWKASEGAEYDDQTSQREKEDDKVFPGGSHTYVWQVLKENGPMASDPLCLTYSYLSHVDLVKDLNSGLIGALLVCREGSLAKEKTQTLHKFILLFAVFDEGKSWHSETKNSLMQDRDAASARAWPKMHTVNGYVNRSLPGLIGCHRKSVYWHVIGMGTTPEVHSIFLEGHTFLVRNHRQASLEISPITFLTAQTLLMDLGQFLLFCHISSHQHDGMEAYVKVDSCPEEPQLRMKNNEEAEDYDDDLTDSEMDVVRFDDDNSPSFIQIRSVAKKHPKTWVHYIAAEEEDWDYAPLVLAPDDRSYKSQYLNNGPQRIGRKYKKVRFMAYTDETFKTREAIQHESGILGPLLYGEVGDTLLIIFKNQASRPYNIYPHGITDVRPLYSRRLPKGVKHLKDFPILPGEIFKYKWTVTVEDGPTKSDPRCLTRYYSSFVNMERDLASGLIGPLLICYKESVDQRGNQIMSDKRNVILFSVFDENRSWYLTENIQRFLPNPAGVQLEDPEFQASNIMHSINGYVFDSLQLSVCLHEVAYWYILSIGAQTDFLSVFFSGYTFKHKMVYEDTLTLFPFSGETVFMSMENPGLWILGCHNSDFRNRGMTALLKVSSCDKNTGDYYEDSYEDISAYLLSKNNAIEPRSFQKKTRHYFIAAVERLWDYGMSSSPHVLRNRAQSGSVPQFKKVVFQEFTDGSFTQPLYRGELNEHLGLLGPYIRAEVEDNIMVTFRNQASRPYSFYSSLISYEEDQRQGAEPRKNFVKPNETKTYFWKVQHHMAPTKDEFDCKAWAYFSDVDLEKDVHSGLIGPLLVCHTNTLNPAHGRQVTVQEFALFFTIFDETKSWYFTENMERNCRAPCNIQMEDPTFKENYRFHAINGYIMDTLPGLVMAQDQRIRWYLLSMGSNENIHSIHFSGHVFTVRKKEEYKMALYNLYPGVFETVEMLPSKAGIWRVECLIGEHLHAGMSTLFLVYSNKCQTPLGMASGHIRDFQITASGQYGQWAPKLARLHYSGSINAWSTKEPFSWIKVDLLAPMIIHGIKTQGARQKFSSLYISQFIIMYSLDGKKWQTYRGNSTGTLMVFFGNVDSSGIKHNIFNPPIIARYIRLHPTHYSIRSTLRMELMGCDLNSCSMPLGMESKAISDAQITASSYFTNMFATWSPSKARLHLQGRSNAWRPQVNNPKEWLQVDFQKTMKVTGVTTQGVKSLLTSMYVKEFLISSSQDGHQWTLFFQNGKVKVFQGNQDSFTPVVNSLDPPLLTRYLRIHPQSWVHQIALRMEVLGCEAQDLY


Legend:
[1] = target: T1, Factor VIIIa (FVIIIa), from recombinant …; assay: apparent functional KD (KD-app): FX activation rate vs FVIIIa titration, fluorogenic Xase assay with PC/PS vesicles and Ca2+
From the text: (§1) The activity of alpha-thrombin was then quenched by the addition of a highly specific thrombin inhibitor, hirudin, prior to initiating the assay.

[2] = target: T1, Factor VIIIa (FVIIIa), from recombinant …; assay: ratio of KD-app of Catalyst Biosciences WT FIXa to KD-app of the variant, same Xase assay
From the text: as §1

[3] = target: T2, plasma purified human AT-III (antithrombin III) (human, UniProt P01008 33-464); assay: K0.5: AT-III/UFH titrated on FIXa, residual activity on fluorogenic substrate
T2 construct: also called AT-III/UFH (in complex with unfractionated heparin)

Row | Binder | Kd [1] [nM] | KD-WT/KD-mut [2] [fold] | IC50 [3] [nM]
1 | FIXa variant Y155F/K228N/R318Y/R338E/R403E/E410N (enzyme) light: YNSGKLEEFVQGNLERECMEEKCSFEEAREVFENTERTTEFWKQYVDGDQCESNPCLNGGSCKDDINSYECWCPFGFEGKNCELDVTCNIKNGRCEQFCKNSADNKVVCSCTEGYRLAENQKSCEPAVPFPCGRVSVSQTSKLTR heavy: VVGGEDAKPGQFPWQVVLNGKVDAFCGGSIVNEKWIVTAAHCVETGVNITVVAGEHNIEETEHTEQKRNVIRIIPHHNYNAAINKYNHDIALLELDEPLVLNSYVTPICIADKEYTNIFLKFGSGYVSGWGRVFHKGYSALVLQYLRVPLVDRATCLESTKFTIYNNMFCAGFHEGGRDSCQGDSGGPHVTEVEGTSFLTGIISWGEECAMKGKYGIYTKVSEYVNWIKNKTKLT | 31.2 | 3.1 | –
2 | FIXa-D104N/K106S/K228N/K247N/N249S (enzyme) chain 1: YNSGKLEEFVQGNLERECMEEKCSFEEAREVFENTERTTEFWKQYVDGDQCESNPCLNGGSCKDDINSYECWCPFGFEGKNCELDVTCNIKNGRCEQFCKNSANNSVVCSCTEGYRLAENQKSCEPAVPFPCGRVSVSQTSKLTR chain 2: VVGGEDAKPGQFPWQVVLNGKVDAFCGGSIVNEKWIVTAAHCVETGVNITVVAGEHNIEETEHTEQNRSVIRIIPHHNYNAAINKYNHDIALLELDEPLVLNSYVTPICIADKEYTNIFLKFGSGYVSGWGRVFHKGRSALVLQYLRVPLVDRATCLRSTKFTIYNNMFCAGFHEGGRDSCQGDSGGPHVTEVEGTSFLTGIISWGEECAMKGKYGIYTKVSRYVNWIKEKTKLT | – | – | 41
3 | FIXa-K247N/N249S/R318Y/R338E/E410N (enzyme, also called K82N/N84S/R150Y/R170E/E240N) chain 1: YNSGKLEEFVQGNLERECMEEKCSFEEAREVFENTERTTEFWKQYVDGDQCESNPCLNGGSCKDDINSYECWCPFGFEGKNCELDVTCNIKNGRCEQFCKNSADNKVVCSCTEGYRLAENQKSCEPAVPFPCGRVSVSQTSKLTR chain 2: VVGGEDAKPGQFPWQVVLNGKVDAFCGGSIVNEKWIVTAAHCVETGVKITVVAGEHNIEETEHTEQNRSVIRIIPHHNYNAAINKYNHDIALLELDEPLVLNSYVTPICIADKEYTNIFLKFGSGYVSGWGRVFHKGYSALVLQYLRVPLVDRATCLESTKFTIYNNMFCAGFHEGGRDSCQGDSGGPHVTEVEGTSFLTGIISWGEECAMKGKYGIYTKVSRYVNWIKNKTKLT | – | – | 1510
4 | FIXa variant Y155F/K247N/N249S/R318Y/R338E/E410N (enzyme) light: YNSGKLEEFVQGNLERECMEEKCSFEEAREVFENTERTTEFWKQYVDGDQCESNPCLNGGSCKDDINSYECWCPFGFEGKNCELDVTCNIKNGRCEQFCKNSADNKVVCSCTEGYRLAENQKSCEPAVPFPCGRVSVSQTSKLTR heavy: VVGGEDAKPGQFPWQVVLNGKVDAFCGGSIVNEKWIVTAAHCVETGVKITVVAGEHNIEETEHTEQNRSVIRIIPHHNYNAAINKYNHDIALLELDEPLVLNSYVTPICIADKEYTNIFLKFGSGYVSGWGRVFHKGYSALVLQYLRVPLVDRATCLESTKFTIYNNMFCAGFHEGGRDSCQGDSGGPHVTEVEGTSFLTGIISWGEECAMKGKYGIYTKVSRYVNWIKNKTKLT | 7.4 | 12.8 | –
5 | FIXa-K247N/N249S/R318Y/R338E/R403E/E410N (enzyme, also called K82N/N84S/R150Y/R170E/R233E/E240N) chain 1: YNSGKLEEFVQGNLERECMEEKCSFEEAREVFENTERTTEFWKQYVDGDQCESNPCLNGGSCKDDINSYECWCPFGFEGKNCELDVTCNIKNGRCEQFCKNSADNKVVCSCTEGYRLAENQKSCEPAVPFPCGRVSVSQTSKLTR chain 2: VVGGEDAKPGQFPWQVVLNGKVDAFCGGSIVNEKWIVTAAHCVETGVKITVVAGEHNIEETEHTEQNRSVIRIIPHHNYNAAINKYNHDIALLELDEPLVLNSYVTPICIADKEYTNIFLKFGSGYVSGWGRVFHKGYSALVLQYLRVPLVDRATCLESTKFTIYNNMFCAGFHEGGRDSCQGDSGGPHVTEVEGTSFLTGIISWGEECAMKGKYGIYTKVSEYVNWIKNKTKLT | – | – | 8080
6 | FIXa-D104N/K106S/I251S/R318Y/R338E/E410N (enzyme) chain 1: YNSGKLEEFVQGNLERECMEEKCSFEEAREVFENTERTTEFWKQYVDGDQCESNPCLNGGSCKDDINSYECWCPFGFEGKNCELDVTCNIKNGRCEQFCKNSANNSVVCSCTEGYRLAENQKSCEPAVPFPCGRVSVSQTSKLTR chain 2: VVGGEDAKPGQFPWQVVLNGKVDAFCGGSIVNEKWIVTAAHCVETGVKITVVAGEHNIEETEHTEQKRNVSRIIPHHNYNAAINKYNHDIALLELDEPLVLNSYVTPICIADKEYTNIFLKFGSGYVSGWGRVFHKGYSALVLQYLRVPLVDRATCLESTKFTIYNNMFCAGFHEGGRDSCQGDSGGPHVTEVEGTSFLTGIISWGEECAMKGKYGIYTKVSRYVNWIKNKTKLT | – | – | 8980
7 | FIXa variant Y155F/K247N/N249S/N260S (enzyme) light: YNSGKLEEFVQGNLERECMEEKCSFEEAREVFENTERTTEFWKQYVDGDQCESNPCLNGGSCKDDINSYECWCPFGFEGKNCELDVTCNIKNGRCEQFCKNSADNKVVCSCTEGYRLAENQKSCEPAVPFPCGRVSVSQTSKLTR heavy: VVGGEDAKPGQFPWQVVLNGKVDAFCGGSIVNEKWIVTAAHCVETGVKITVVAGEHNIEETEHTEQNRSVIRIIPHHNYSAAINKYNHDIALLELDEPLVLNSYVTPICIADKEYTNIFLKFGSGYVSGWGRVFHKGRSALVLQYLRVPLVDRATCLRSTKFTIYNNMFCAGFHEGGRDSCQGDSGGPHVTEVEGTSFLTGIISWGEECAMKGKYGIYTKVSRYVNWIKEKTKLT | 167 | 0.6 | –
8 | FIXa variant Y259F/K265T/Y345T (enzyme, also called Y94F/K98T/Y177T) light: YNSGKLEEFVQGNLERECMEEKCSFEEAREVFENTERTTEFWKQYVDGDQCESNPCLNGGSCKDDINSYECWCPFGFEGKNCELDVTCNIKNGRCEQFCKNSADNKVVCSCTEGYRLAENQKSCEPAVPFPCGRVSVSQTSKLTR heavy: VVGGEDAKPGQFPWQVVLNGKVDAFCGGSIVNEKWIVTAAHCVETGVKITVVAGEHNIEETEHTEQKRNVIRIIPHHNFNAAINTYNHDIALLELDEPLVLNSYVTPICIADKEYTNIFLKFGSGYVSGWGRVFHKGRSALVLQYLRVPLVDRATCLRSTKFTITNNMFCAGFHEGGRDSCQGDSGGPHVTEVEGTSFLTGIISWGEECAMKGKYGIYTKVSRYVNWIKEKTKLT | 115 | 0.8 | –
9 | FIXa-A103N/N105S/K247N/N249S/R318Y/R338E/R403E/E410N (enzyme) chain 1: YNSGKLEEFVQGNLERECMEEKCSFEEAREVFENTERTTEFWKQYVDGDQCESNPCLNGGSCKDDINSYECWCPFGFEGKNCELDVTCNIKNGRCEQFCKNSNDSKVVCSCTEGYRLAENQKSCEPAVPFPCGRVSVSQTSKLTR chain 2: VVGGEDAKPGQFPWQVVLNGKVDAFCGGSIVNEKWIVTAAHCVETGVKITVVAGEHNIEETEHTEQNRSVIRIIPHHNYNAAINKYNHDIALLELDEPLVLNSYVTPICIADKEYTNIFLKFGSGYVSGWGRVFHKGYSALVLQYLRVPLVDRATCLESTKFTIYNNMFCAGFHEGGRDSCQGDSGGPHVTEVEGTSFLTGIISWGEECAMKGKYGIYTKVSEYVNWIKNKTKLT | – | – | 2500
10 | FIXa-I251S/R318Y/R338E/E410N (enzyme, also called I86S/R150Y/R170E/E240N; I251S/R318Y/E410N/R338E) chain 1: YNSGKLEEFVQGNLERECMEEKCSFEEAREVFENTERTTEFWKQYVDGDQCESNPCLNGGSCKDDINSYECWCPFGFEGKNCELDVTCNIKNGRCEQFCKNSADNKVVCSCTEGYRLAENQKSCEPAVPFPCGRVSVSQTSKLTR chain 2: VVGGEDAKPGQFPWQVVLNGKVDAFCGGSIVNEKWIVTAAHCVETGVKITVVAGEHNIEETEHTEQKRNVSRIIPHHNYNAAINKYNHDIALLELDEPLVLNSYVTPICIADKEYTNIFLKFGSGYVSGWGRVFHKGYSALVLQYLRVPLVDRATCLESTKFTIYNNMFCAGFHEGGRDSCQGDSGGPHVTEVEGTSFLTGIISWGEECAMKGKYGIYTKVSRYVNWIKNKTKLT | – | – | 5860
11 | FIXa-D104N/K106S/Y155F/K228N/K247N/N249S (enzyme) chain 1: YNSGKLEEFVQGNLERECMEEKCSFEEAREVFENTERTTEFWKQYVDGDQCESNPCLNGGSCKDDINSYECWCPFGFEGKNCELDVTCNIKNGRCEQFCKNSANNSVVCSCTEGYRLAENQKSCEPAVPFPCGRVSVSQTSKLTR chain 2: VVGGEDAKPGQFPWQVVLNGKVDAFCGGSIVNEKWIVTAAHCVETGVNITVVAGEHNIEETEHTEQNRSVIRIIPHHNYNAAINKYNHDIALLELDEPLVLNSYVTPICIADKEYTNIFLKFGSGYVSGWGRVFHKGRSALVLQYLRVPLVDRATCLRSTKFTIYNNMFCAGFHEGGRDSCQGDSGGPHVTEVEGTSFLTGIISWGEECAMKGKYGIYTKVSRYVNWIKEKTKLT | – | – | 32
